# Measured values reported in article doi:10.1101/2025.08.27.672506.
# How the values were obtained:
# [1] = molecular target: wild-type H1/Cal09 HA ectodomain with the Foldon trimerization tag (influenza A virus A/California/04/2009 (H1N1) | T4); experiment: SEC
# [2] = molecular target: wild-type H1/Cal09 HA ectodomain with the Foldon trimerization tag (influenza A virus A/California/04/2009 (H1N1) | T4); experiment: cryo-EM 2D classification
# [3] = molecular target: wild-type H1/Mal07 HA ectodomain with the Foldon tag (influenza A virus A/Malaysia/1706215/2007 (H1N1) | T4); experiment: SEC
# [4] = molecular target: wild-type H9/HK98 HA ectodomain with the Foldon tag (influenza A virus A/swine/Hong Kong/2106/98 (H9N2) | T4); experiment: SEC
# [5] = molecular target: wild-type ectodomain of HA from /turkey/Ontario/6118/1968 (H8N4) (influenza A virus /turkey/Ontario/6118/1968 (H8N4)); experiment: SEC
# [6] = molecular target: wild-type ectodomain of HA from A/gull/Maryland/704/1977 (H13N6) (influenza A virus A/gull/Maryland/704/1977 (H13N6)); experiment: SEC
# [7] = molecular target: wild-type ectodomain of HA from A/swine/Hong Kong/2106/98 (H9N2) (influenza A virus A/swine/Hong Kong/2106/98 (H9N2)); experiment: SEC
substance,measurement,setting,value
wild-type H1/Cal09 HA ectodomain with the Foldon trimerization tag,stoichiometry N,[1],3
same,stoichiometry N,[2],3
wild-type H1/Mal07 HA ectodomain with the Foldon tag,stoichiometry N,[3],3
wild-type H9/HK98 HA ectodomain with the Foldon tag,stoichiometry N,[4],3
wild-type ectodomain of HA from /turkey/Ontario/6118/1968 (H8N4) (domain or fragment),stoichiometry N,[5],3
wild-type ectodomain of HA from A/gull/Maryland/704/1977 (H13N6) (domain or fragment),stoichiometry N,[6],3
wild-type ectodomain of HA from A/swine/Hong Kong/2106/98 (H9N2) (domain or fragment),stoichiometry N,[7],3
